From article PMC11581024 (bioRxiv, 2024)

Biological target: the molecule itself
Test: SEC-MALS

B1: Treponema denticola ComFB (natural protein)
chain: MIIHNVMEDLVYTEVNKLFDEAEEKKESWLTCSCMQCRVDTMCYVLNRVKPRYIKSGRGLAHFLKFEKTEKVQIMADITSLVIEGMHRVLSTKRPHDHEPIFETENTPVFNFPAITGNILNGSNFRPMEDATISLKMNGELVSQMSILWDNPYTISEKTPGAYTFCPKAIPAKNAGDKEKFIFVLKAEKEGFDPTNFSFDIELTAEDMVKSPLDSSNFYQIKNLFLCEHSEEE
For B1, the “stoichiometry N” value was 2.
